Source: the supplement of paper PMC10567573

B1: TFE3 (parent)
chain: FPSDHLGDLGDPFHLGLEDILMEE

Variants of: B1
Assay: protein stability index of a GFP-peptide fusion (GPS, HEK-293T) (PSI 1-6); higher = more stable
Details: c terminus: a fixed tail appended
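Further: lentivirally expressed fusions sorted by FACS into six bins by GFP to DsRed ratio, PSI derived from sequencing read proportions per bin multiplied by bin number.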

Row | Variant | protein stability index
1 | FPSDHLGDLGDPFHLGLEDILLEE | 3.24
2 | FPSDHLGDLGDPFHLGLEDILDEE | 4.26
3 | FPSDHLGDLGDPFHLGLEDILQEE | 3.75
4 | FPSDHLGDLGDPFHLGLEDILFEE | 3.14
5 | FPSDHLGDLGDPFHLGLEDILYEE | 3.13
6 | FPSDHLGDLGDPFHLGLEDILSEE | 3.87
7 | FPSDHLGDLGDPFHLGLEDILHEE | 3.7
8 | FPSDHLGDLGDPFHLGLEDILCEE | 3.53
9 | FPSDHLGDLGDPFHLGLEDILNEE | 4.04
10 | FPSDHLGDLGDPFHLGLEDILGEE | 3.64
11 | FPSDHLGDLGDPFHLGLEDILIEE | 3.35
12 | FPSDHLGDLGDPFHLGLEDILVEE | 3.08
13 | FPSDHLGDLGDPFHLGLEDILTEE | 3.72
14 | FPSDHLGDLGDPFHLGLEDILKEE | 3.98
15 | FPSDHLGDLGDPFHLGLEDILPEE | 3.71
16 | FPSDHLGDLGDPFHLGLEDILREE | 3.33
17 | FPSDHLGDLGDPFHLGLEDQLMEE | 4.37
18 | FPSDHLGDLGDPFHLGLEDGLMEE | 4.16
19 | FPSDHLGDLGDPFHLGLEDNLMEE | 4.29
20 | FPSDHLGDLGDPFHLGLEDFLMEE | 3.82
21 | FPSDHLGDLGDPFHLGLEDPLMEE | 3.77
22 | FPSDHLGDLGDPFHLGLEDKLMEE | 4.05
23 | FPSDHLGDLGDPFHLGLEDMLMEE | 3.63
24 | FPSDHLGDLGDPFHLGLEDVLMEE | 3.48

Row | Variant | protein stability index
25 | FPSDHLGDLGDPFHLGLEDCLMEE | 3.84
26 | FPSDHLGDLGDPFHLGLEDYLMEE | 3.88
27 | FPSDHLGDLGDPFHLGLEDWLMEE | 3.5
28 | FPSDHLGDLGDPFHLGLEDHLMEE | 3.92
29 | FPSDHLGDLGDPFHLGLEDTLMEE | 3.97
30 | FPSDHLGDLGDPFHLGLEDALMEE | 3.28
31 | FPSDHLGDLGDPFHLGLEDELMEE | 4.2
32 | FPSDHLGDLGDPFHLGLEDSLMEE | 3.7
33 | FPSDHLGDLGDPFHLGLEDLLMEE | 3.91
34 | FPSDHLGDLGDPFHLGLEDDLMEE | 4.26
35 | FPSDHLGDLGDPFHLGLEDRLMEE | 3.5
36 | FPSDHLGDLGDPFHLGLEDILMED | 3.54
37 | FPSDHLGDLGDPFHLGLEDILMET | 2.95
38 | FPSDHLGDLGDPFHLGLEDILMEF | 1.92
39 | FPSDHLGDLGDPFHLGLEDILMEN | 3.49
40 | FPSDHLGDLGDPFHLGLEDILMEW | 1.8
41 | FPSDHLGDLGDPFHLGLEDILMEQ | 2.96
42 | FPSDHLGDLGDPFHLGLEDILMEY | 2.35
43 | FPSDHLGDLGDPFHLGLEDILMEA | 2.64
44 | FPSDHLGDLGDPFHLGLEDILMEV | 1.59
45 | FPSDHLGDLGDPFHLGLEDILMES | 2.91
46 | FPSDHLGDLGDPFHLGLEDILMEP | 2.77
47 | FPSDHLGDLGDPFHLGLEDILMEI | 1.97
48 | FPSDHLGDLGDPFHLGLEDILMEK | 2.59

Row | Variant | protein stability index
49 | FPSDHLGDLGDPFHLGLEDILMEG | 2.91
50 | FPSDHLGDLGDPFHLGLEDILMEM | 2.62
51 | FPSDHLGDLGDPFHLGLEDILMEL | 1.97
52 | FPSDHLGDLGDPFHLGLEDILMEC | 2.96
53 | FPSDHLGDLGDPFHLGLEDILMER | 2.87
54 | FPSDHLGDLGDPFHLGLEDILMEH | 2.75
55 | FPSDHLGDLGDPFHLGLYDILMEE | 2.1
56 | FPSDHLGDLGDPFHLGLWDILMEE | 2.65
57 | FPSDHLGDLGDPFHLGLEDILMME | 2.33
58 | FPSDHLGDLGDPFHLGLEDILMYE | 2.3
59 | FPSDHLGDLGDPFHLGLEDILMKE | 3.34
60 | FPSDHLGDLGDPFHLGLEDILMGE | 2.47
61 | FPSDHLGDLGDPFHLGLEDILMDE | 2.86
62 | FPSDHLGDLGDPFHLGLEDILMSE | 2.81
63 | FPSDHLGDLGDPFHLGLEDILMTE | 3.24
64 | FPSDHLGDLGDPFHLGLEDILMWE | 2.56
65 | FPSDHLGDLGDPFHLGLEDILMIE | 2.62
66 | FPSDHLGDLGDPFHLGLEDILMHE | 2.86
67 | FPSDHLGDLGDPFHLGLEDILMAE | 2.45
68 | FPSDHLGDLGDPFHLGLEDILMVE | 3.85
69 | FPSDHLGDLGDPFHLGLEDILMCE | 2.03
70 | FPSDHLGDLGDPFHLGLEDILMNE | 2.65
71 | FPSDHLGDLGDPFHLGLEDILMLE | 2.44
72 | FPSDHLGDLGDPFHLGLEDILMPE | 2.76

Row | Variant | protein stability index
73 | FPSDHLGDLGDPFHLGLEDILMRE | 2.95
74 | FPSDHLGDLGDPFHLGLEDILMFE | 2.42
75 | FPSDHLGDLGDPFHLGLEDILMQE | 3.26
76 | FPSDHLGDLGDPFHLGLEDINMEE | 3.85
77 | FPSDHLGDLGDPFHLGLEDIVMEE | 3.4
78 | FPSDHLGDLGDPFHLGLEDIYMEE | 3.31
79 | FPSDHLGDLGDPFHLGLEDIGMEE | 3.88
80 | FPSDHLGDLGDPFHLGLEDIDMEE | 4.26
81 | FPSDHLGDLGDPFHLGLEDIRMEE | 3.78
82 | FPSDHLGDLGDPFHLGLEDIIMEE | 3.32
83 | FPSDHLGDLGDPFHLGLEDIHMEE | 4.08
84 | FPSDHLGDLGDPFHLGLEDIPMEE | 4.18
85 | FPSDHLGDLGDPFHLGLEDIAMEE | 4.03
86 | FPSDHLGDLGDPFHLGLEDIWMEE | 3.14
87 | FPSDHLGDLGDPFHLGLEDICMEE | 3.42
88 | FPSDHLGDLGDPFHLGLEDISMEE | 3.69
89 | FPSDHLGDLGDPFHLGLEDIKMEE | 4.06
90 | FPSDHLGDLGDPFHLGLEDITMEE | 3.93
91 | FPSDHLGDLGDPFHLGLEDIEMEE | 4.28
92 | FPSDHLGDLGDPFHLGLEDIQMEE | 3.94
93 | FPSDHLGDLGDPFHLGLEDIFMEE | 3.28
94 | FPSDHLGDLGDPFHLGLEDIMMEE | 3.38
